Test results: patent publication US20220267469A1 (LIPUM, published 2022)
Residue numbers refer to the chain shown, from its start. Names and notes keep the numbering of the source.

T1: Biotinylated human BSSL (human, UniProt P19835 21-753, Biotinylated on glycosacarides, 30-40 biotin/BSSL)
T1 construct: hBSSL biotinylated in house; also called b-hBSSL; human BSSL-biotin
T1 sequence: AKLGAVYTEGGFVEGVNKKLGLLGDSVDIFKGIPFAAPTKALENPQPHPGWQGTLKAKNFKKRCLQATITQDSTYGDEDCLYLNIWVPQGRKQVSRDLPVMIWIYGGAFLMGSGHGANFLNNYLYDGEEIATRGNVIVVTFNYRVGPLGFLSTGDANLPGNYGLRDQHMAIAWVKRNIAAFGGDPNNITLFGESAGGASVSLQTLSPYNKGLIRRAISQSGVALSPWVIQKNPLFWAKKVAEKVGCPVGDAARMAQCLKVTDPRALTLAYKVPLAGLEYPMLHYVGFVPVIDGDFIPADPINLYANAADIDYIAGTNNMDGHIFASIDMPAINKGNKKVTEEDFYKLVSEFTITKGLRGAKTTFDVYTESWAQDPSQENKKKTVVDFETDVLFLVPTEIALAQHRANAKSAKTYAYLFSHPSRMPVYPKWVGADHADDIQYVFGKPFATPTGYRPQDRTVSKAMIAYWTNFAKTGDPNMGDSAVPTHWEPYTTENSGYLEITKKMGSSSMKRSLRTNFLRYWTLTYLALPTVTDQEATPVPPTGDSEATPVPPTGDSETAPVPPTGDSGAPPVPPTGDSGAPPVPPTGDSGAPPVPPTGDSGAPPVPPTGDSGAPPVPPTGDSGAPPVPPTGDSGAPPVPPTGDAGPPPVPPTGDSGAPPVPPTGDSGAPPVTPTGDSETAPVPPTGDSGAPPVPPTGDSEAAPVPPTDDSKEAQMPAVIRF

T2: Human BSSL (bile salt-stimulated lipase), native (human, UniProt P19835 21-753)
T2 construct: Native full-length protein purified from human milk (Astra Hässle AB); also called hBSSL; non-biotinylated human BSSL
T2 sequence: T1 sequence

T3: Mouse BSSL, recombinant (mouse, UniProt Q64285 21-599)
T3 construct: Bought (R&D Systems, Cat. no 5658-CE); also called mBSSL; murine BSSL
T3 sequence: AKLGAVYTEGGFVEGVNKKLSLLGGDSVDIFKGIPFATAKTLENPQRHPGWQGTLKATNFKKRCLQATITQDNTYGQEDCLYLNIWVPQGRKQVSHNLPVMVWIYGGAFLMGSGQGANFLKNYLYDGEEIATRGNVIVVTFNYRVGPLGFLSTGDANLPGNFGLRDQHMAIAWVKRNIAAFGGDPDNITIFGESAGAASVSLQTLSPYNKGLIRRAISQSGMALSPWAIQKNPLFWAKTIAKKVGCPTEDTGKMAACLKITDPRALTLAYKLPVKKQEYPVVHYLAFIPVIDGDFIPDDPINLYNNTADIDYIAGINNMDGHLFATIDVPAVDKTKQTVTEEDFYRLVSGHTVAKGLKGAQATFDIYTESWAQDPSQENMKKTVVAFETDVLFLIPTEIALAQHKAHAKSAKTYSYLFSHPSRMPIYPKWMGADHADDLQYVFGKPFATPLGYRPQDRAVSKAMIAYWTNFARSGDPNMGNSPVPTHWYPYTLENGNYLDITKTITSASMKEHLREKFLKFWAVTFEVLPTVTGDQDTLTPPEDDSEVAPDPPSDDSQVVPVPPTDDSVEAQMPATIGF

B1: S-SL048-14 hIgG4 S228P (antibody, V domains shown)
VH: QVQLVQSGAEVKKPGASVKVSCKASGYTFTSYNMHWVRQAPGQGLEWMGVINPGDGATSYAQKFKGRVTMTRDTSTSTVYMELSSLRSEDTAVYYCARDYYGSSPLGYWGQGTLVTVSS
VL: DIQMTQSPSSLSASVGDRVTITCRASPSISYLNWYQQKPGKAPKLLIYATSRLPSGVPSRFSGSGSGTDFTLTISSLQPEDFATYYCQQRSSSPTFGQGTKLEIK
notes: Tested as human IgG4 S228P
B2: S-SL048-38 hIgG4 S228P (antibody, V domains shown)
VH: B1 VH with K65Q
VL: B1 VL with R52S, P54A
notes: Tested as human IgG4 S228P
B3: S-SL048-74 hIgG4 S228P (antibody, V domains shown)
VH: B1 VH with M48I, K65Q
VL: B1 VL with P27Q, T50A, R52S, P54A, Q88H
notes: Tested as human IgG4 S228P
B4: S-SL048-109 hIgG4 S228P (antibody, V domains shown)
VH: B1 VH with G54S
VL: B1 VL with P54A
notes: Tested as human IgG4 S228P
B5: S-SL048-107 hIgG4 S228P (antibody, V domains shown)
VH: B1 VH with A61N, K65Q
VL: B1 VL with R52S
notes: Tested as human IgG4 S228P
B6: S-SL048-125 hIgG4 S228P (antibody, V domains shown)
VH: B1 VH with M48I, K65Q
VL: B1 VL with P27S, N33H, T50A, Q88H, S93Y
notes: Tested as human IgG4 S228P
B7: S-SL048-43 hIgG4 S228P (antibody, V domains shown)
VH: B1 VH with A61T, K65Q
VL: B1 VL with L32M, T50A, R52S
notes: Tested as human IgG4 S228P
B8: S-SL048-108 hIgG4 S228P (antibody, V domains shown)
VH: B1 VH with M48I, G54S
VL: B1 VL with R24S, R52S, P54A
notes: Tested as human IgG4 S228P
B9: S-SL048-104 hIgG4 S228P (antibody, V domains shown)
VH: B1 VH with A61D
VL: B1 VL with R24S, P27S, N33H, T50A, P54A, Q88H, S93T
notes: Tested as human IgG4 S228P
B10: S-SL048-79 hIgG4 S228P (antibody, V domains shown)
VH: B1 VH with G54S, K65Q
VL: B1 VL with R24S, P27Q, T50A, Q88H, S93Y
notes: Tested as human IgG4 S228P
B11: S-SL048-10 hIgG4 S228P (antibody, V domains shown)
VH: B1 VH with M48I, G54S, A57Y, K65Q
VL: B1 VL
notes: Tested as human IgG4 S228P
B12: S-SL048-81 hIgG4 S228P (antibody, V domains shown)
VH: B1 VH with M48I, K65Q
VL: B1 VL with P27S, L32M, N33H, T50A, R52S, P54Q, Q88H
notes: Tested as human IgG4 S228P
B13: S-SL048-17 hIgG4 S228P (antibody, V domains shown)
VH: B1 VH with A57Y, A61T
VL: B1 VL with P27Q, T50A, R52K
notes: Tested as human IgG4 S228P
B14: S-SL048-131 hIgG4 S228P (antibody, V domains shown)
VH: B1 VH with M48I
VL: B1 VL with T50A, R52K, P54A, Q88H
notes: Tested as human IgG4 S228P
B15: S-SL048-18 hIgG4 S228P (antibody, V domains shown)
VH: B1 VH with G54S, A61T
VL: B1 VL with P27S, P54Q, Q88H, S93T
notes: Tested as human IgG4 S228P

These binders were tested against T1, Biotinylated human BSSL (assay: flow cytometry displacement assay; 0.5 ug antibody, 1 ug b-hBSSL).
Description: (§1) The 28 BSSL-specific hIgG4 antibodies and the five reference antibodies at different concentrations (ranging from 0.5 μg to 3.0 μg per reaction; see Table 10) were added to b-hBSSL (1 μg per reaction, see Table 2) in round-bottom polystyrene tubes, lx PBS (pH 7.4) was added to a final volume of 20 μl and the antibody/b-hBSSL mixtures were incubated for 30 min. at +4° C. to facilitate binding of antibodies to BSSL. Buffy coat (50 μl) was then added to each antibody/b-hBSSL mixture and incubation continued for another 30 min at +4° C. Thereafter, 2 ml of FACS lysing solution (BD Biosciences) was added and the cells were incubated for 10 min at room temperature in order to lyse erythrocytes and fix the white blood cells. The cells were then centrifuged for 5 min. at 200×g, the resulting pellets were washed by adding 2 ml of FACS buffer (1×PBS supplemented with 1% FCS and 0.1% NaN3) and centrifuged again. Finally, the supernatants were discarded and the cells were resuspended in the last drop of liquid, approximately 50 μl.
(§2) 5 μl of BV421-labelled anti-human CD14 (BD Biosciences) and 5 μl of BB515-labelled streptavidin (BD Biosciences) was added to each tube and incubated for 30 min, at +4° C., protected from light. Thereafter, cells were washed twice with FACS buffer, resuspended in 500 μl FACS buffer, and run on BD LSRII flow cytometer (BD Biosciences). Finally, data were analyzed using FlowJo software (BD Biosciences).

Row | percentage reduction of b-hBSSL binding to CD14+ monocytes | Binder
1 | 11% | B1
2 | 6% | B2

What follows are binders tested against T1, Biotinylated human BSSL (assay: flow cytometry displacement assay; 3.0 ug antibody, 1 ug b-hBSSL).
Description: as §1, §2

Row | percentage reduction of b-hBSSL binding to CD14+ monocytes | Binder
3 | 56% | B1
4 | 52% | B3
5 | 51% | B4
6 | 49% | B5
7 | 33% | B6
8 | 55% | B7
9 | 48% | B8
10 | 44% | B9
11 | 52% | B10
12 | 42% | B11
13 | 62% | B12
14 | 36% | B13
15 | 58% | B14
16 | 51% | B2
17 | 61% | B15

What follows are binders tested against T2, Human BSSL (bile salt-stimulated …) (assay: SPR single cycle kinetics, hIgG4 S228P captured by anti-Fab).
Description: (§3) Kinetic parameters of the hIgG4 S228P clones were determined by SPR using BIACORE® T200 (GE Healthcare). Single cycle kinetics was used to measure the affinity of the purified hIgG4 molecules to human and mouse BSSL. An anti-Fab antibody (GE Healthcare, #28958325) was immobilized on a CM5 S sensor chip by primary amine coupling using NHS-EDC chemistry. hIgG4 was captured by the anti-Fab antibody, and subsequently, five different concentrations of hBSSL (1:5 dilutions starting from 50 nM) or mBSSL (1:5 dilutions starting from 500 nM) were injected over the surface. The sensor chip surface was regenerated with 10 mM glycine-HCl pH 2.1. For binding to human BSSL, single cycle kinetic data was fitted to a 1:1 binding model and kinetic parameters were retrieved using software BlAevaluation. For mouse BSSL, a steady state analysis was performed by plotting the response level at equilibrium against each concentration, and KD values were retrieved by the BlAevalution software.

Row | Kd | Binder
18 | 0.9 nM | B1
19 | 4.8 nM | B3
20 | 1.4 nM | B4
21 | 1.2 nM | B5
22 | 2.1 nM | B6
23 | 1.2 nM | B7
24 | 1.3 nM | B8
25 | 3.3 nM | B9
26 | 5 nM | B10
27 | 2.2 nM | B11
28 | 4.4 nM | B12
29 | 4.3 nM | B13
30 | 2.7 nM | B14
31 | 1 nM | B2
32 | 2.3 nM | B15

What follows are binders tested against T1, Biotinylated human BSSL (assay: flow cytometry displacement assay; 1.5 ug antibody, 1 ug b-hBSSL).
Description: as §1, §2

Row | percentage reduction of b-hBSSL binding to CD14+ monocytes | Binder
33 | 48% | B1
34 | 29% | B3
35 | 38% | B4
36 | 37% | B5
37 | 9% | B6
38 | 37% | B7
39 | 41% | B8
40 | 2% | B9
41 | 20% | B10
42 | 34% | B11
43 | 31% | B12
44 | 16% | B13
45 | 31% | B14
46 | 52% | B2
47 | 58% | B15

Each binder was assayed against T3, Mouse BSSL, recombinant (assay: SPR steady state, hIgG4 S228P captured by anti-Fab).
Description: as §3

Row | Kd | Binder
48 | 89 nM | B1
49 | 21 nM | B3
50 | 353 nM | B4
51 | 98 nM | B5
52 | 123 nM | B6
53 | 137 nM | B7
54 | 149 nM | B8
55 | 111 nM | B9
56 | 48 nM | B10
57 | 57 nM | B11
58 | 60 nM | B12
59 | 68 nM | B13
60 | 63 nM | B14
61 | 67 nM | B2
62 | 68 nM | B15

What follows are binders tested against T1, Biotinylated human BSSL (assay: flow cytometry displacement assay; 1.0 ug antibody, 1 ug b-hBSSL).
Description: as §1, §2

Row | percentage reduction of b-hBSSL binding to CD14+ monocytes | Binder
63 | 32% | B1
64 | 44% | B2
